T1: human pituitary adenylate cyclase-activating polypeptide type I receptor, endogenously expressed on SH-SY-5Y … (human, UniProt P41586 21-468)
T1 sequence (looked up): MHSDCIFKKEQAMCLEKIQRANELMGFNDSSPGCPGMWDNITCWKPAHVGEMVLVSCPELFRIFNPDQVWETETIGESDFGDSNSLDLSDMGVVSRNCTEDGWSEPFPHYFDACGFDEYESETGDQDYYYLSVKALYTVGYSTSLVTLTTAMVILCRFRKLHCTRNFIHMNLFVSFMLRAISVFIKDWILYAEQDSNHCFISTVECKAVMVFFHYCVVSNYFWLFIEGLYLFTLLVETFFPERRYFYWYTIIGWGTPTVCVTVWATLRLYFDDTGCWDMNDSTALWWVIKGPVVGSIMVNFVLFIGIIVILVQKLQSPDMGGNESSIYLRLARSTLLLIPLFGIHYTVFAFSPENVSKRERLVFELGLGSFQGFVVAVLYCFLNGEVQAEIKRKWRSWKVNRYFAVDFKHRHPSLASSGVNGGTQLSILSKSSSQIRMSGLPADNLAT

T2: human PAC1 (form used for the Kd determination not stated) (human, UniProt P41586 21-468, limits assumed)
T2 construct: also called hPAC1
T2 sequence (looked up): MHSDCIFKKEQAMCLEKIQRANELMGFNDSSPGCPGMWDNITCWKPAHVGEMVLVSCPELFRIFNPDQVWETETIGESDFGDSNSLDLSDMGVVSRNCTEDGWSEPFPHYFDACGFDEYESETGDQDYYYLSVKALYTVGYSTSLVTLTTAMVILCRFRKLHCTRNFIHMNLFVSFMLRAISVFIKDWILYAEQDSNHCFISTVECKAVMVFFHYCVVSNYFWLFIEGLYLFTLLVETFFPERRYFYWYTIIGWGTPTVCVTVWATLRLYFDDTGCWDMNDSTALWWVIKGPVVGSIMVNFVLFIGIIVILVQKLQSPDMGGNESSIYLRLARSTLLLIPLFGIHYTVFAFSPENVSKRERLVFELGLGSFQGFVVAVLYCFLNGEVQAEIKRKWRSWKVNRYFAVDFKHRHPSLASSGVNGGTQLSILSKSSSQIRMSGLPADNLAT


Assays:
[1] = molecular target: T1, human pituitary adenylate …; experiment: cell-based or functional assay
[2] = molecular target: T2, human PAC1 (form used for the Kd …); experiment: method not described (Table 8, 'Kd (nM)')

Row | Antagonist IC50 (nM), PAC1 mediated cAMP assay (LANCE), PACAP-38 1 nM stimulation [1] [nM] | Kd [2] [nM] | Binder
1 | 4 | 0.024 | Anti-hPAC1 antibody L (antibody, human IgG2, kappa, V domains shown, also called Ab ID L) VH: QVQLVESGGGVVQPGRSLRLSCAASGFTFSRYAMHWVRQASGKGLEWVAVISYDGSNKYYADSVKGRFTISRDNSKNTLYLLMSSLRAEDTAVFYCARGYDILTGYPDYWGQGTLVTVSS VL: DIQLTQSPSFLSASVGDRVTITCRASQSIGRSLHWYQQKPGKAPKLLFKYASQSLSGVPSRFSGSGSGTEFTLTISSLQPEDFATYYCHQSSRLPFTFGPGTKVDIKR
2 | 28 | 0.189 | Anti-hPAC1 antibody W (antibody, human IgG2, kappa, V domains shown, also called Ab ID W) VH: QVQLQESGPGLVKPSQTLSLTCTVSGGSISSGGYYWSWIRQHPGKGLEWIGYIYYSGNTYYNPSLKSRVTISGDTSKNQFSLKLRSVTAADTAVYYCTRGGAARGMDVWGQGTTVTVSS VL: not shown
